The test concerns the target GST-LC3B, Q9GZQ8. As to the kind of experiment: GST-pulldown, in vitro-translated 35S-labelled protein, autoradiography quantification. The conditions noted are these: chain shown with the change; Means ± SD of 3 independent experiments; parent: est. 1.0; read off a plot.

This is an account of results in article PMC6613885.

B1: Myc-tagged ATG14, full-length, in vitro translated, Q6ZNE5 F64A; F67A; W435A; L438A (protein)
chain: MASPSGKGARALEAPGCGPRPLARDLVDSVDDAEGLYVAVERCPLCNTTRRRLTCAKCVQSGDAVYADGRDRERFIDKKERLSRLKSKQEEFQKEVLKAMEGKWITDQLRWKIMSCKMRIEQLKQTICKGNEEMEKNSEGLLKTKEKNQKLYSRAQRHQEKKEKIQRHNRKLGDLVEKKTIDLRSHYERLANLRRSHILELTSVIFPIEEVKTGVRDPADVSSESDSAMTSSTVSKLAEARRTTYLSGRWVCDDHNGDTSISITGPWISLPNNGDYSAYYSWVEEKKTTQGPDMEQSNPAYTISAALCYATQLVNILSHILDVNLPKKLCNSEFCGENLSKQKFTRAVKKLNANILYLCFSQHVNLDQLQPLHTLRNLMYLVSPSSEHLGRSGPFEVRADLEESMEFVDPGVAGESDESGDERVSDEETDLGTDAENAPSPRFCDIPSQSVEVSQSQSTQASPPIASSSAGGMISSAAASVTSWFKAYTGHR
On to B1, for which the response was determined as 0.6 % binding.
